Experimental findings from paper PMC8902225 are described below.

Test [1] concerns the target wild-type equine follicle-stimulating hormone receptor (equine) (UniProt P47799).
The target of test [2] is equine follicle-stimulating hormone receptor A306T (equine) (UniProt P47799).
Test [3] addresses equine follicle-stimulating hormone receptor D566G (equine) (UniProt P47799).
For test [4], the target named is wild-type equine follicle-stimulating hormone receptor (equine) (UniProt P47799). This is another data set of the same source.
Chain of wild-type equine follicle-stimulating hormone receptor (equine) (P47799 18-694): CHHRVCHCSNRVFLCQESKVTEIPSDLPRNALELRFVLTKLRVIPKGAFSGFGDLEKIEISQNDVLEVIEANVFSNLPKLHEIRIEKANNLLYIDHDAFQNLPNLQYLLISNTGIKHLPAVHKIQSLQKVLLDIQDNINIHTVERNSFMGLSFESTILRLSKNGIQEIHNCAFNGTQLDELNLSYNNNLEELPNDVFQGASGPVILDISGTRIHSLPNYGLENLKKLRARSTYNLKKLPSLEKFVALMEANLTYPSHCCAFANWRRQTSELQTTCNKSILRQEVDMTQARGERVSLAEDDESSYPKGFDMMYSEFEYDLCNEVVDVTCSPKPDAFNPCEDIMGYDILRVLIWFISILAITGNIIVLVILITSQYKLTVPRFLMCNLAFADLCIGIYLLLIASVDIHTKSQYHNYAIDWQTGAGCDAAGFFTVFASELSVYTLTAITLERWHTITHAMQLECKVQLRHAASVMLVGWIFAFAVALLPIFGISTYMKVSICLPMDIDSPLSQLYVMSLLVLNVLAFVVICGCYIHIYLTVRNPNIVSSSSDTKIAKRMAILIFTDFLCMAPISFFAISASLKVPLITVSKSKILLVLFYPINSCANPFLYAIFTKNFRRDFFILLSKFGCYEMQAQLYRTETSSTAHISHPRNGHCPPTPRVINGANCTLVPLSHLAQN
Test [5] concerns the target equine follicle-stimulating hormone receptor R633H (equine) (UniProt P47799).
Test [6] has as its target equine follicle-stimulating hormone receptor N191I (equine) (UniProt P47799).

Chain of Human FSH (follicle-stimulating hormone) (P01215 25-116): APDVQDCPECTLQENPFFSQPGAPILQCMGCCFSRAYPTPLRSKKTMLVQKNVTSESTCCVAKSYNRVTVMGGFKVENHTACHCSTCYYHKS
Chain of Human FSH (follicle-stimulating hormone) (P01225 19-129): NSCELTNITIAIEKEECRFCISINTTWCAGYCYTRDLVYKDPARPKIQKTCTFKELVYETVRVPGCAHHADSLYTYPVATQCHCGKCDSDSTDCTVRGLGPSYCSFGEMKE
Chain of equine follicle-stimulating hormone receptor D566G (equine) (P47799 18-694 D566G): as the sequence (P47799 18-694) above, with D549G counted along it
Chain of equine follicle-stimulating hormone receptor A306T (equine) (P47799 18-694 A306T): as the sequence (P47799 18-694) above, with A289T counted along it
Chain of equine follicle-stimulating hormone receptor N191I (equine) (P47799 18-694 N191I): as the sequence (P47799 18-694) above, with N174I counted along it
Chain of equine follicle-stimulating hormone receptor R633H (equine) (P47799 18-694 R633H): as the sequence (P47799 18-694) above, with R616H counted along it

For the substance “Human FSH (follicle-stimulating hormone) (from UniProt P01215 25-116; P01225 19-129) (ligand)”, the EC50 of FSH-stimulated cAMP accumulation (HTRF) in transfected PathHunter EA-parental CHO-K1 cells in test [1] came out at 0.765 µg/mL; in test [2], 0.751 µg/mL; in test [3] it was 0.648 µg/mL; in test [5], 1.16 µg/mL; in test [6], 3.91 µg/mL. The EC50 of FSH-stimulated cAMP accumulation (HTRF) in transfected PathHunter EA-parental CHO-K1 cells (series with the inactivating mutants) in test [4] came to 0.718 µg/mL.
